Assay: yeast display, Sf9 membrane polyspecificity reagent, FACS + sequencing; frameworks hold sequencing errors
Procedure, shortened: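 Polyreactivity labels are assigned by the sorting gate from which each nanobody was recovered. The gates were low and high (top ~1%), set on anti-HA fluorescence for expression and streptavidin fluorescence for reagent binding. Before sorting, galactose-induced (36–48 hours) yeast display cells were stained for 1 hour at 4 °C with 10% biotinylated, detergent-solubilized Sf9 membrane reagent.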

Sequence | polyreactivity (PSR sort gate)
QVQLVESGGGLVQAGGSLRLSCAASGRIFAYNAMGWYRQAPGKEREVVAAIDSGGDTNYADSVKGRFTISRDNAKNTVYLQMNSLKPEDTAVYYCNVTYSGQATFAYTDSARYDYWGQGTQVTVSS | low polyreactivity
QVQLVESGGGLVQAGGSLSLSCAASGRIFGRNAMGWYRQAPGKERELVAAISSSGGTYYADSVKGRFTISRDNAKNTVYLQMISLKPEDTAVYYCNDRVRTQQRWVDYWGQGTQVTVSS | high polyreactivity
QVQLVESGGCLVQAGGSLRLICAASGLIFTGNAMGWYRQAPGKERELVAAINYSGGSTYYADSVKWRFTISRDNAKNTVSLQLNSLKAEDTAVYYCAAGGKSRSYYWGQGTQVTVSS | high polyreactivity
QVQLVESGGGLVQAGGSRRLSCAASGSTFYPYSMGWYRQAPGKESELVAAITWSGGRTYYADSVKGRFTISRDNANNTVYLQMNSLKPEDTAVYYCAADRPDGWVDYWGQGTQVTVSS | low polyreactivity
QVQLVESGGGLVQAGGSLRLSCAASGFTFSYNTMGWYREAPGKERELVAAISRSGGRTFYADSVKGRFTISRDNAKNTVYLQMNSLKPEDTAVYYCARPWFDYWGQGTQVTVSS | high polyreactivity
QVQLVESGGGLVQAGGSLLLSCSASGRTFPVNAMGWYRKAHGKEREFVAVISSTGTTYYADSVKGRFTISRDNAKNTVYLQMNSLQPVDTAVYYCARRSNRRAYGNRVGVRRTVDYWGQGTQVTVSS | low polyreactivity
QVQLVESGGGLVQAGGSLRLSCAASGSILGWYAMGWYRQAPGKERQLVAAISYSGTSTYYADSVKGRFTISRDNAKNPVYLQMNSLNPEDTAVYYCNAFFSSRYYRVGSGYDYWGQGTQVTVSS | high polyreactivity
QVQLVESGGGLVQAGGSLRLSCAASGSTSGLYAMGWYRQAPGKERELVATISLSGGSTYYADSVKGRFTISRDNAKNTVYLQMNSLKPEDTAVYYCNTDKYKWNYGSTYRMDYWGQGTQVTVSS | low polyreactivity
QVQLVESGGGLVQAGGSLRLSCAASGSTPDGYGMGWYRQAPGKERELVAVITIGGGRTYYADSVKGRFTISRDNAKNTVYLQMNSLKAVDTAVYYCAAKGWRRYYIGDYWGQGTQVTVSS | high polyreactivity
QVQLVESGGGLVQALGSLRLSCAASGFIFGYNAMGWYRQAPGQERELVAAISSSGGSTYYADSVKGRFTISRDNAKNTVYLQMNSLKPEDTAVYYGAARPVALRKYDYWGLGTQVTVSS | low polyreactivity
QVQLVESGGGLVQAGGSLRLSCAASGRIFQTYTMGWYRQAPGKERELVARITGGDSTYYADSVKGRFTISRDNAKNTVYLQMNSLKPEDTAVYYCAGEVWSYWGTFNYWGQGTQVTVSS | low polyreactivity
QVQLVESRGGLVQAGGSLRLSCAASGSTFSANTMGWNRQAPGKERELVAGITNTGDTYYADSVKGRFTLSRDNAKNTVYLQMNSLKPEDTAVYYCAADSWRLTDGAYWSTVYYWGQGNQVTVSS | low polyreactivity
QVQLLESGGGLVQAGGSHRLSCAASGRIFGSNAMGWYRQAPGKERELVAAITRGGSTNYADSVKGRFTISLDNAKNTVYLQMNSLKPEDTAVYYCAVRWYRKYNYWGQGTQVTVSS | high polyreactivity
QVQLVESGGGLVQAGGSLRLSCAASGRIFLKYTMGLYRQAPGKERELVAAISRGGSTYYADSVKGRFTISRDNAKNTVYLQMNRLKPEDTAVYYCAATSYRRTGYNYWGQGTQVTVSS | high polyreactivity
QVQLVESGGGLVQAGGSLRLSCAASGSTFQYYAMGWYRQAPGKERELVATISTSGGRTYYADSVKGRFTISRDNAKNTVYLQMNSLKPEDTAVYYCAKRRYSTYYWTFDYWGQGTQVTVSS | high polyreactivity
QVQLVESGGGLVQARGSLRLSCAASGSIFDFYAMGWYRQAPGKERELVAAISGSGGSTYYADSVKARFTISRDNAKNNGYLQMISLKPDDTAVYYCSYYYWGQGTQVTVSS | low polyreactivity
QVQLVESGGGLVQAGGSLRLSCAASGRTSRYAMGWSRQAPGKERELVAAITSSGGRTYYADSVKGRFTISRDNAKNTVYLQMNSLKPEDTAVYYCAAGYLLWRTWDYAAGHNYWGQGTQVTVSS | high polyreactivity
QVQLVESGGGLVQAGGSLRLSCAASGSILYANAMGWYRQAPGKDRELVAAISARGTSTYYADSVKGRFTISRDNAKNTVYLQMNSLKPEDTAVYYCAAYVRKKLPSALMNYWGQGTQVTVSS | high polyreactivity
QVQLVESGGGLVQAGGSLRLRCAASGSTFQTYAMGWYRQAPGKERELVAAITSGGATNYADSVKGRFTISRDNAKNTVFLQMNFLTPEVTAVYYCAVRLIDQTSDHRLQYDYWGQGTQVTVSS | low polyreactivity
QVQLVESGGGLVQAGGSLRLSCAASGFIFRRYAMGWYRQAPGKERELVAAISSGGRTYYADSVKGRFTISRDNAKNTVYLQMNSLKPEDTAVYYCAAYSPYLRSWYDYWGQGTQVTVSS | high polyreactivity
QVQLVESGGGLVQAGGSLRLSCAASGFISPNAMGWYRQAPGKERELVAAISRSGGSTYYADSVKGRFTISRDNAKNTVYLQMNSLKTEDTAVYYCAAGRLYSYRRQYGYWGQGTQVTVSS | high polyreactivity
QVQLVESGGGLVQAGGSLRLSCAASGSTFGGNAMGWYRPAPGKERELVAGITSSGTSTYYADSVKGRFTISRDNAKNTVYLQMNSLKPEDTAVYYCATDEADESYGFELFDYWGQGTQVTVSS | low polyreactivity

Sequence | polyreactivity (PSR sort gate)
QVQLVESGGGLVQAGGSLRLSCAASGSIFGRNVMGWYRQAPGKERELVAAISEGGGRTYYADSVKGRFTISRDNAKNTVYLQMNSLKPEDTAVYYCAAAYFSSGYKYYYWGQGTQVTVSS | high polyreactivity
QVQLVESGGGLVQAGGSLRLSCAASGFIFPTYAMGWYRQATGKERELVAAISYRGGITSYADSVKGRFTISRDNAKNTVYLQMNSLKPEDSAVYYCAARGAWGYEYWGQGTQVTVSS | low polyreactivity
QVQLVESWGGLVQAGGSLRLSCAASGYTFSYYAMGWYRPAPWKERELVAAITSTGSTYYADSVKVRFTISRDNAKNTVYLQMNSLKPEDTAVYYCNVDDATVGPVDYWGQGTQVTVSS | low polyreactivity
QVQLVESGGGLVQAGGSLRLSCAASGFTFKFNTMGWYRQAPGKERELVAAISWRGGDTSYADSVKGRFTISRDNAKNTVYLQMNSLKPEDTAVYYCAASPRYPYWYDYWGQGTQVTVSS | low polyreactivity
QVQLVESGGGLVQAGGSLRLSCAASGGIFSYAMGWYRQAPGKERELVAAISSGGSTYYADSVKGRFTISRDNAKNTVYLQMNSLKPEDTAVYYCAADGNGVDYDYWGQGTQVTVSS | low polyreactivity
QVQIVESGGGLVQAGGSLRLSCAASGRIFFQYALGWYRQAPGKERELVAAIRYSGGSTYYADSVKGRFTISRDNAKNTVYLQMNSLKPEDTAVYYCAARYTRRHYDYWGQGTQVTVSS | high polyreactivity
QVQLVESGGGLVQAGGSLRLSCAASGSIFYGYAMGWYRPAPGKERELVAAITSGGRTYYADSVKGRFTISRDNAKNTVYLQMNSLKPEDTAVYYCNKLNYWSVRYEYWGQGTQVTVSS | high polyreactivity
QVQLVESGGGLVQAGGSLRLSCAASGSTSDVYAMGWYRQAPGKEREFVAAIRFSGGSTYYADSVKGRFTISRDNAKNTVYLQMNSLKPEDTAVYYCAKRWGIWPRGYYWGQGTQVTVSS | low polyreactivity
QVQLVESGGGLVQAGGSLRLSCAASGRIFSPYAMGWYRQAPGKERELVAAISFSAASTYYADSVKGRFTISRDNAKNTVYLQMNSLKPEDTAVYYCAADYWGQGTQVTVSS | high polyreactivity
QVQLVESGGGLFQAGGSLSLSCAASGSTFVKYAMGWYRQAPGKERELVATITRRGGNTYYADSVKGRFKISRVNAKNTVYIQLNSLKPEDTEVYYCNRADYRASYSGQGSYDYWGQGTQVTVSS | high polyreactivity
QVQLVESGGGLVQAGGSLRLSCAASGSTFRWNAMGWYRQAPGKERELVAAISSGGRTYYADSVKGRFTISRDNAKNTVYLQMNSLKPEDTAVYYCSARTSRYYYYPYAFYWGQGTQVSVSS | high polyreactivity
QVQLVESGGGLVQAGGSLRLSCAASGRIFYYNAMGWYREAPGKERELVAVITRSGGRTFYADSVKGRFTISRDNAKNTVYLQMNSLKPEDTAVYYCAARYRYYPVTTRGYYWGQGTQVTVSS | high polyreactivity
QVQLVESRGGLVQAGGSLRLSCAASGFIFSYYAMGWYRQAPGKERELVAAISGLGGSTYYADSVKGRFTISRDNAKNTVYLQMNSLKPEDTAVYYCAATTLRYYRHGDYWGQGTQVTVSS | low polyreactivity
QVQLVESGGGLVQVGGSLRLSCAASGFTFLGYAMGWYRQAPGKEREMVAAITTGGGSTYYAVSVKGRFTISRDNATTTVYLQMNSLKPEDTAVYYCAARRNVRPRYGYWGQGTQVTVSS | high polyreactivity
QVQLVESGGGLVQAGGSLRLSCAASGNIFTYYAMGWYRQAPGKERELVAAIRWRSGSTYYADSVKGRFTISRDNAKNTVYLQMNSLKPEDTAVYYCAADGTPYEYDYWGHGTQVTVSS | low polyreactivity
QVQLVESVGGLVQAGGSLRLTCAASGSIFYVYAMGWYRQAPGKERELVANIRDGGITYADSVKGRFTISRDNAKNTVYLQMNSLKPEDTAVYYCARDDTSPGYGDQSSNAAYYYRGQGTQVTVSS | low polyreactivity
QVQLVESGGGLVQAGGSLRLSCAASGFTFPGNTMGWYRQAPGKERELVAVISRSGGRSYYADSVKGRFTISRDNAKNTVYLQMNSLKPEDTAVYYCAADTSVRFDYWGQGTQVTVSS | high polyreactivity
QVKLVESGGGLVQAGGSLRLSCAASGFTFYTYAMGWYRQAPGKETELFAAITGSGGRTYYADSVKGRFTISRDNAKNTVYLKMHSLKPEYTSLYYCAALYVYRPRTPYGYWGQGTQVTVSS | high polyreactivity
QVPLVESGGGLVQSGGSLRISCAASGSIFAPNAMGWYRQAPGKERELVAAITSGGSTDYADYVKGRFTISRDNAKNTVYLQMNRLKPEDTAVYFCAKGYVPYAIFDYWGQATQVTVSS | low polyreactivity
QVQLVESGGGLVQAGGSLRLSCAASGITFYWNDMGWYRQATGKERELVAAIRRTAGSTYYADSVKGRFTISRDNAKNTVYLQMNSLKPEDTAVYYCAASRHFARHRGYYFRYDYWGQGTQVTVSS | high polyreactivity
QVQLVESGGGLVQAGGSLRLSCAASGNTSVPYAMGWYRQAPGKERELVARITWSTGRTYYADSVKGRFTISRDNAKNTVYLQMNSLKPEDTAVYYCATEALLPCSGGDYWGQGTQVTVSS | low polyreactivity

Reference: the nanobody polyreactivity screen of Harvey et al. (2022)
